Residue numbers refer to the chain shown, from its start. Like-named read-outs stand apart in the source and are kept apart here. A value given as a limit tells only on which side of the number the result lay.

The target in experiment [1] is T1, HER3 extracellular domain recombinant protein (human, UniProt P21860 20-643).
T1 construct: extracellular domain; also called HER3 extracellular domain protein; HER3 protein
The experiment can be described thus: SPR, ProteOn XPR36; antibody captured by goat anti-human antibody, HER3 extracellular domain 1.25-20 nM as analyte, Langmuir model. How it is done: (§1) And the channels were turned to horizontal position, and Channels 1-5 were injected with 20 nM, 10 nM, 5 nM, 2.5 nM, 1.25 nM of samples of HER3 extracellular domain protein respectively, and Channel 6 was injected with buffer. 5 kinetic response curves were obtained, respectively representing the results of the reaction between different concentrations of antigen and the captured antibody. The Langmuir model was used to calculate the affinity constants KD (M) of each chimeric antibody and humanized antibody mutant.
(In general: SPR reads the build-up and loss of mass on a sensor chip optically.)

For experiment [2], the target named is T1, HER3 extracellular domain recombinant …. The description is as above. How it is done:
as §1
This is another data set of the same source.

The target is the same in experiment [3]. In words: SPR, ProteOn XPR36; compared with the chimeric antibody. How it is done:
as §1

T1 sequence (P21860 20-643): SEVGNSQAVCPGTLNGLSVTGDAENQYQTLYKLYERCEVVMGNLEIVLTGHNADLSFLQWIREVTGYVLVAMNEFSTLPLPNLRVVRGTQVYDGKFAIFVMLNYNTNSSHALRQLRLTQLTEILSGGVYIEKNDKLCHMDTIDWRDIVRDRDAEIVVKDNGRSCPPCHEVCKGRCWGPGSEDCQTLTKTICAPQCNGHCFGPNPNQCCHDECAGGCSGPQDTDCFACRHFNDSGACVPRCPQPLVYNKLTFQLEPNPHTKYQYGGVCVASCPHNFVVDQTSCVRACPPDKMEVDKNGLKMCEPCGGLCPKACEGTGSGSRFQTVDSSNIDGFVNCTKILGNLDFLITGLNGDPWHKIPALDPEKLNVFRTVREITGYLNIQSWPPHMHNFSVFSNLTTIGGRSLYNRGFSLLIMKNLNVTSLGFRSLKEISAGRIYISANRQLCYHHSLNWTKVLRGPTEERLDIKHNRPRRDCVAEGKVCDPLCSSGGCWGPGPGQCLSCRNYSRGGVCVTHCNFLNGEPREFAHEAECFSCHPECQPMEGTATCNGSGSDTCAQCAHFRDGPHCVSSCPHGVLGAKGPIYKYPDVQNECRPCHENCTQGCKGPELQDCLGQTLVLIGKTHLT

B1: 1044 human-mouse chimeric antibody (antibody, V domains shown)
VH: EVQLQQSGTELMKPGASVKISCKATGGTFSNYWIDWVKQRPGHGLEWIGEILPGSGGTDYNEKFKGKATFTADTSSNTAYMQLSSLTSEDSAVYYCARDDYDVFAYWGQGTLVTVSA
VL: DIVMTQAAFSNPVTLGTSASISCRSSKSLLHSNGITYLYWYLQKPGQSPQLLIYQMSNLASGVPDRFSSSGSGTDFTLRISRVEAEDVGVYYCAQNLELPWTFGGGTKLEIKR
In the case of B1, in experiment [1], the dissociation constant Kd (usually a measure of binding affinity in units of concentration) was found to be 0.262 nM, the koff (usually the first-order rate constant of dissociation) came to 0.000229 s⁻¹ and the kon (commonly the rate constant with which the complex forms) worked out at 874000 M⁻¹ s⁻¹. Besides, in experiment [2], the Kd turned out to be 0.278 nM, the koff was 0.000293 s⁻¹ and the kon stood at 1.05e+06 M⁻¹ s⁻¹.

B2: humanized antibody h1044-0 (antibody, V domains shown)
VH: QVQLVQSGAEVKKPGSSVKVSCKASGGTFSNYWIDWVRQAPGQGLEWMGEILPGSGGTDYNEKFKGRVTITADTSTSTAYMELSSLRSEDTAVYYCARDDYDVFAYWGQGTLVTVSS
VL: DIVMTQSPGTLSLSPGERATLSCRSSKSLLHSNGITYLYWYQQKPGQAPRLLIYQMSNLASGIPDRFSGSGSGTDFTLTISRLEPEDFAVYYCAQNLELPWTFGQGTKVEIKR
notes: also called humanized h1044-0 antibody after CDR transplantation
As for B2, the “fold lower affinity than the chimeric antibody” value in experiment [3] was around 32 fold. For the same molecule, in experiment [1], the Kd turned out to be 8.48 nM, the koff was 0.00427 s⁻¹ and the kon was 503000 M⁻¹ s⁻¹.

B3: humanized antibody hu1044 (VL69, VH38 back mutation) (antibody, V domains shown)
VH: B2 VH with R38K
VL: B2 VL with G69S
notes: also called final humanized antibody hu1044
As to B3, in experiment [3], the “fold of the affinity constant of the chimeric antibody” value (“fold … of the chimeric antibody” below) was at most 2 fold. For the same molecule, in experiment [2], the Kd came to 0.442 nM, the koff was found to be 0.000386 s⁻¹ and the kon was determined as 875000 M⁻¹ s⁻¹.

B4: humanized antibody with VH76 back mutation (antibody, V domains shown)
VH: B2 VH with T76S
VL: B2 VL
For B4, in experiment [1], the Kd was 6.49 nM, the koff is 0.00344 s⁻¹ and the kon came to 531000 M⁻¹ s⁻¹.

B5: humanized antibody hu1044-6 (VL63/69, VH68 back mutation) (antibody, human IgG1, V domains shown)
VH: B2 VH with V68A
VL: B2 VL with I63V, G69S
As to B5, in experiment [2], the Kd was 0.42 nM, the koff came to 0.00038 s⁻¹ and the kon was 904000 M⁻¹ s⁻¹.

B6: humanized antibody hu1044-5 (VL63/69, VH38 back mutation) (antibody, human IgG1, V domains shown)
VH: B2 VH with R38K
VL: B2 VL with I63V, G69S
As to B6, in experiment [2], the Kd came to 0.419 nM, the koff was found to be 0.000353 s⁻¹ and the kon was determined as 844000 M⁻¹ s⁻¹.

B7: humanized antibody with VH77 back mutation (antibody, V domains shown)
VH: B2 VH with S77N
VL: B2 VL
On to B7, for which, in experiment [1], the Kd is 7.07 nM, the koff amounted to 0.00327 s⁻¹ and the kon was 463000 M⁻¹ s⁻¹.

B8: humanized antibody hu1044-3 (VL69, VH48 back mutation) (antibody, human IgG1, V domains shown)
VH: B2 VH with M48I
VL: B2 VL with G69S
Regarding B8, the “fold … of the chimeric antibody” value in experiment [3] was at most 2 fold. Moreover, in experiment [2], the Kd amounted to 0.554 nM, the koff amounted to 0.000494 s⁻¹ and the kon was 882000 M⁻¹ s⁻¹.

B9: humanized antibody hu1044-4 (VL69, VH68 back mutation) (antibody, human IgG1, V domains shown)
VH: B2 VH with V68A
VL: B2 VL with G69S
For the molecule B9, the “fold … of the chimeric antibody” value in experiment [3] was at most 2 fold. In addition, in experiment [2], the Kd worked out at 0.461 nM, the off-rate (koff) is 0.000388 s⁻¹ and the kon came out at 841000 M⁻¹ s⁻¹.

B10: humanized antibody with VH1 back mutation (antibody, V domains shown)
VH: B2 VH with Q1E
VL: B2 VL
For B10, in experiment [1], the Kd was 9.14 nM, the koff came to 0.00382 s⁻¹ and the kon was 418000 M⁻¹ s⁻¹.

B11: humanized antibody with VH25 back mutation (antibody, V domains shown)
VH: B2 VH with S25T
VL: B2 VL
Turning to B11, in experiment [1], the Kd is 6.02 nM, the koff came out at 0.00317 s⁻¹ and the kon stood at 525000 M⁻¹ s⁻¹.

B12: humanized antibody hu1044-1 (VL69 back mutation) (antibody, human IgG1, V domains shown)
VH: B2 VH
VL: B2 VL with G69S
notes: h1044-0 with Gly to Ser at VL69
For the molecule B12, in experiment [3], the “fold difference in affinity from the chimeric antibody” value was around 2 fold. Besides, in experiment [2], the Kd stood at 0.595 nM, the koff was 0.000502 s⁻¹ and the kon came out at 843000 M⁻¹ s⁻¹.

B13: humanized antibody hu1044-7 (VL63/69, VH67/68 back mutation) (antibody, human IgG1, V domains shown)
VH: B2 VH with R67K, V68A
VL: B2 VL with I63V, G69S
As to B13, in experiment [2], the Kd was 0.375 nM, the koff stood at 0.000376 s⁻¹ and the kon was 1e+06 M⁻¹ s⁻¹.

The values above are taken from patent US20210277144A1 (SHANGHAI INSTITUTE OF BIOLOGICAL PRODUCTS, published 2021).
